Results on twelve molecules are retold here after patent publication US20250034594A1, “RNA-GUIDED GENOME RECOMBINEERING AT KILOBASE SCALE” (THE BOARD OF TRUSTEES OF THE LELAND STANFORD JUNIOR …, priority 2021, published 2025).

What all share (type): cell-based
Assay [1] deals with gene editing with Cas9. The experiment in a line: Screen of 322 new SSAP proteins, gene editing activity with Cas9 (Table 5). The arrangement: Cas9 with SSAP activity: scale not given here. An excerpt: (§1) 322 new SSAP proteins were identified from sequence data, synthesized, and screened for activity with Cas9 and dCas9. Gene editing activities are shown below in Table 5, followed by amino acid sequences of the proteins.

Assay [2] concerns gene editing with dCas9. Kind of assay: Screen of 322 new SSAP proteins, gene editing activity with dCas9 (Table 5). The arrangement: dCas9 with SSAP activity: scale not given here.
Excerpt: as §1

The test system of assay [3] is gene editing with Cas9 and dCas9. The experiment in a line: Screen of 322 new SSAP proteins, activity across all experiments (Cas9 and dCas9, Table 5). The arrangement: scale not given here.
Excerpt: as §1

B1: SSAP_318: SEQ ID NO: 487; Shewanella morhuae (protein, listed as Shewanella morhuae)
chain: QTAQVKLSVPHQQVYQDNFNYLSSQVVGHLVDLNEEIGYLNQIVFNSLSTASPLDVAAPWSVYGLLLNVCRLGLSLNPEKKLAYVMPSWSETGEIIMKLYPGYRGEIAIASNFNVIKNANAVLVYENDHFRIQAATGEIEHFVTSLSIDPRVRGACSGGYCRSVLMDNTIQISYLSIEEMNAIAQNQIEANMGNTPWNSIWRTEMNRVALYRRAAKDWRQLIKATPEIQSALSDTEY
Consider B1, for which, in assay [1], the “Cas9 with SSAP activity” value turned out to be 0.045 and the “Cas9 with SSAP activity (normalized)” value was determined as 0.060. For the same molecule, in assay [2], the “dCas9 with SSAP activity” value is recorded as −3.743 and the “dCas9 with SSAP activity (normalized)” value is reported as −0.597. In assay [3], the “Activity across all experiments” value is −1.849.

B2: SSAP_84: SEQ ID NO: 253; Bet Fimbriiglobus ruber (protein)
chain: TDIAHRSYSAPQLSLIRRTVAKDTNQDEFDLFIEICKQQGLDPFKKQIFAQVYNKDKADKRQIVIVTSIDGYRAKAQRCGDYRPAEEETRFEADAALKIRRQPMGSFVRSCGLQVRPGQGVVSRVGEARWDEFAPLDDAEFDWVDTGETWPDTGKPKKKKVAKSAKKTLKEGNWKNMPHVMLGKCAEAQALGGGGRKRSAACTSKRRWTRSTWT
modifications: Fimbriiglobus ruber
Regarding B2, in assay [1], the “Cas9 with SSAP activity” value is recorded as −1.881 and the “Cas9 with SSAP activity (normalized)” value is on record as −0.590. Besides, in assay [2], the “dCas9 with SSAP activity” value is reported as 1.313 and the “dCas9 with SSAP activity (normalized)” value is 1.563. Also, in assay [3], the “Activity across all experiments” value is −0.284.

B3: SSAP_108: SEQ ID NO: 277; Rummeliibacillus stabekisii (protein, listed as Rummeliibacillus stabekisii)
chain: ATTTELKEQMKQQAPAQTKKPKTIEDYMKQMAPAMAEALPKHMSVDRLTRLAMTTIRTTPALRQADVSSLLGAVMQAAQLGLEPGLLGQCYLLPFKNKKKAITEVQFIIGYKGMIDLARRSGHIQSIYSHAVFENDVFEYELGLEPKLKHTPTMSTDKGAFIGAYAVAHFKDGGHQFEFMSKADIEKRKGRSKAANSDYSPWLTDYEEMAKKTVIRHMWKYLPISVEMQEQVAYDEGVGRSIKDVTPEEDVFVQAPDEILEAEATEA
Take B3: in assay [1], the “Cas9 with SSAP activity” value came out at 0.069 and the “Cas9 with SSAP activity (normalized)” value amounted to 0.068. Moreover, in assay [2], the “dCas9 with SSAP activity” value is on record as −3.682 and the “dCas9 with SSAP activity (normalized)” value is reported as −0.539. Also, in assay [3], the “Activity across all experiments” value is given as −1.807.

B4: SSAP_298: SEQ ID NO: 467; Nocardia aurea (protein, listed as Nocardia aurea)
chain: SESISAAADAQKVTPRIVLDRHRDAFAQVLPPTINLDRWLRLAESAINASAGLLDIFRRDRGASALKALMKCAQLGHEPGSGLFHLVPKGQAIEGWEDYKGILQRILRSALYAKVVVAPVYANDEYAFDVNVDERPRHKQAAGDRGEPVRAYAYAVHRDGSTSTIAEATPAMIAGAKAKGHKTDASTSPWQNPRAPMHQKVAVRELERFVSTSAVDLRVTGDVTDLIIEEP
As for B4, in assay [1], the “Cas9 with SSAP activity” value turned out to be 0.510 and the “Cas9 with SSAP activity (normalized)” value is listed as 0.610. In assay [2], the “dCas9 with SSAP activity” value is −3.790 and the “dCas9 with SSAP activity (normalized)” value is −0.578. Also, the “Activity across all experiments” value in assay [3] is −1.640.

B5: SSAP_293: SEQ ID NO: 462; Brevibacillus porteri (protein)
chain: ADQNKLVVIYNNLEKLLDSKREAMPTSFNKTRFLQNCMTVLQETKDIELCNPTTVARTMLKGAFLGLDFFNKECYAVVYKGSVEFQTDYKGEVKLAKKYSTKPVREVYAKLVREGDEFAEEINSGNQTINFRPKPFNNEEILGAFAVVNYMDGTMAYDIMSKEEIEKIKENFSRKSKQTGEYSKAWVVTPGEMYKKTVLRRLCKNIDLDFDTIEQRQAFEDAGDVDFNQEVKPAQQSPLNSTVIEAEFEEVSEEQTNAAEQE
modifications: Brevibacillus porter
notes: Brevibacillus porteri
In the case of B5, in assay [1], the “Cas9 with SSAP activity” value is −5.271 and the “Cas9 with SSAP activity (normalized)” value was −0.961. Besides, in assay [2], the “dCas9 with SSAP activity” value is on record as −3.846 and the “dCas9 with SSAP activity (normalized)” value is −0.563. The “Activity across all experiments” value in assay [3] is listed as −4.559.

B6: SSAP_246: SEQ ID NO: 415; Anoxybacillus (protein, listed as Anoxybacillus sp.)
chain: ATTQSLKNQIAKKQNSNIQQGVTLKQLLNSESMKKRFEEVLGKRAQQFATSILNLYNSEKMLQKCEPMSIISSAMVAASLDLPVDKNLGYMYIVPYGTTATPIMGYRGYIQLALRTGQYKHINVIEVYEGELQKWDRLTEEFEMDSKQKKSDVVVGYAAYFELINGFRKTVYWTREQIEAHRKKYSKSDFGWKNDFDAMAKKTVLKSLLSKWGILSIEMQNAFNEDEKEVDTKEVKDITSEVQEAEYIEAEAFEVPIETETPQQEEIVFDAQ
Regarding B6, in assay [1], the “Cas9 with SSAP activity” value stood at 0.824 and the “Cas9 with SSAP activity (normalized)” value was found to be 0.919. In addition, in assay [2], the “dCas9 with SSAP activity” value is −3.897 and the “dCas9 with SSAP activity (normalized)” value is recorded as −0.611. For the same molecule, in assay [3], the “Activity across all experiments” value was −1.537.

B7: SSAP_285: SEQ ID NO: 454; Chitinophaga lutea (protein, listed as Chitinophaga lutea)
chain: SNVNAPAAPVKSKIEVLKDIMNAPSVQEQFQNALRENSGVFVASVIDLFNSDTYLQNCEPKQVVMECLKAATLKLPINKNLGFAYVVPYKSNGKQIPQFQIGYKGYIQLAMRTGQYRIINADKVYEGEYRTKNKLTGEFDLSGTATSETVVGYFAHIEMLNGFAKTLYMTKEKVAAHAKKYSKSFGKETSPWHTEFDAMALKTVLRNLLSHYGYLSVEMMGAMNADIESDQVGSEVSQTINDKANKQEMTFDDAEVVDDDEKEQNPI
In the case of B7, in assay [1], the “Cas9 with SSAP activity” value is −1.178 and the “Cas9 with SSAP activity (normalized)” value is on record as −0.366. In assay [2], the “dCas9 with SSAP activity” value is −3.704 and the “dCas9 with SSAP activity (normalized)” value is recorded as −0.608. The “Activity across all experiments” value in assay [3] is −2.441.

B8: SSAP_1: SEQ ID NO: 172 (protein)
chain: ATNESLKNQLSTKKETGLGSAGNTIKGLMNSPAIKKRFEEVLKQRAPQYMSSIVNLVNSDINLKKCDQMSVVASCMVAATLDLPVDKNLGYAWVVPYGNKAQFQLGYKGYVQLALRTGQYKSINVIEIHEGELIDWNPLTEELKIDFSKKESDAVIGYAGYFELLNGFKKSTYWTKEQITKHKNKFSKSDFGWKKDFDAMARKTVLRNMLSKWGILSIEMQNAYTADQGIIKNEIIETGEVKENIEYIEADFESYEDNSIEEGGANE
Consider B8, for which, in assay [1], the “Cas9 with SSAP activity” value is on record as −4.919 and the “Cas9 with SSAP activity (normalized)” value is −0.814. In addition, in assay [2], the “dCas9 with SSAP activity” value was −3.622 and the “dCas9 with SSAP activity (normalized)” value is listed as −0.496. Also, the “Activity across all experiments” value in assay [3] is listed as −4.270.

B9: SSAP_90: SEQ ID NO: 259; Xenorhabdus poinarii (protein, listed as Xenorhabdus poinarii)
chain: TNTPPLAQADLQKAQPQTKVAATKDQALIQFINKPSMKAQLAAALPRHMAPDRMIRIVTTEIRKTPALANCDMQSFVGAVVQCSQLGLEPGSALGHAYLLPFGNGKSKTGQSNVQLIIGYRGMIDLARRSGQIVSISARTVRDGDQFHYEYGLNENLTHIPGENEDAPITHVYAVARLQDGGVQFEVMTRKQVEKVREKSSAGNNGPWVTHWEEMAKKTVIRRLFKYLPVSIEMQKAVILDEKADANIDQDNAAIFEGEFEEVGNDG
B9: in assay [1], the “Cas9 with SSAP activity” value was −0.504 and the “Cas9 with SSAP activity (normalized)” value is −0.093. For the same molecule, in assay [2], the “dCas9 with SSAP activity” value is reported as −3.935 and the “dCas9 with SSAP activity (normalized)” value is on record as −0.892. The “Activity across all experiments” value in assay [3] is −2.219.

B10: SSAP_245: SEQ ID NO: 414; Paenibacillus macquariensis subsp. defensor (protein, listed as Paenibacillus macquariensis)
chain: SDKLLVIHKNLENLLDSKREAMPSNFNKTRFLQNCMTVLQDTRDIDKCDATSVARTMLKGAFLGLDFFNKECYAITYAGAVQFQTDYKGEKKLAKKYSVRPVRDIYAKLVKEGDDFKEEVKDGQQTIQFAPKPFNDGEVLGAFAVALFEDGGLVYEVMSKVDIETTRKNYSKQANGQAWTKSPGEMYKKTVLRRLCKNIELDFDTIEQAQAFEDSGDMDLNKEVKPPQVSPLNATVIDAEYTEIREGDPNATNQE
As for B10, in assay [1], the “Cas9 with SSAP activity” value was 0.282 and the “Cas9 with SSAP activity (normalized)” value was found to be 0.572. Besides, in assay [2], the “dCas9 with SSAP activity” value is on record as −3.899 and the “dCas9 with SSAP activity (normalized)” value was −0.575. Besides, in assay [3], the “Activity across all experiments” value was −1.809.

B11: SSAP_160: SEQ ID NO: 329; Veillonellaceae bacterium DNF00626 (protein)
chain: KTTGGLQQQQQQQAQALQNGGTTLKGYLQAMMPEIKKALPTVMTPERFTRIVMTTISTNPALQNCTPQSFLGAVMQAAQLGVEPNTPLGQAYLIPYGNQVQFQLGYKGLIDLAYRSGEVQSLQAHEVYQNDTFEYELGLNPKLKHIPALTNRGDVILYYAVIKFKNGGEGFEVMSKEDVEAFAKSKSKTYGRGPWQTDFDEMAKKTVLKKVLKYAPMKTDFIRAVATDETVKSSVAEQMADLPDETVTIDTEAQVVVDKETGEVKS
modifications: Veillonellaceae bacterium DNF00626
Turning to B11, in assay [1], the “Cas9 with SSAP activity” value is reported as 1.888 and the “Cas9 with SSAP activity (normalized)” value is 0.942. Further, in assay [2], the “dCas9 with SSAP activity” value was −3.690 and the “dCas9 with SSAP activity (normalized)” value is −0.763. For the same molecule, in assay [3], the “Activity across all experiments” value is given as −0.901.

B12: SSAP_126: SEQ ID NO: 295; Marispirochaeta aestuarii (protein, listed as Marispirochaeta aestuarii)
chain: RTDGTKEAGAAATAPTEGKAPAKAHKPADTIGAMIEKLKPQIERALPKHVTPDRMARMALTAIRNNPKLGQAEAVSLMGSIIQASQLGLEPNTPLGQCYIIPYNSKNGMQAQFQMGYKGIVDLAHRSGQYRQLTAHPVDEADEFRYSYGLNPDLVHVPAEKPSGKITHYYAVYHLTNGGFDFRVWSREKVEAHAKQYSKSFSSGPWQTNFDQMACKTVMIDLLRYAPKSVEIAKATSADNRTHTINPEDPDLNIDTIDGDFELEGEER
B12: in assay [1], the “Cas9 with SSAP activity” value is listed as −3.406 and the “Cas9 with SSAP activity (normalized)” value is on record as −0.596. Moreover, in assay [2], the “dCas9 with SSAP activity” value was −3.777 and the “dCas9 with SSAP activity (normalized)” value is −0.714. The “Activity across all experiments” value in assay [3] is on record as −3.591.
